Data: US20200339690A1
Positions count from the first letter of the chain named. Blank lines part the entries; values can stand above or below the binder they belong to.

Experiments:
human LILRA4 (human) = human LILRA4 (human) (UniProt P59901); test: flow cytometry, LILRA4 CHOs
human LILRB2 (human) [1] = target: human LILRB2 (human) (UniProt Q8N423); test: BLI Octet sandwich binning; competitor (antibody #1 on sensor) J-07
human LILRB2 (human) [2] = target: human LILRB2 (human) (UniProt Q8N423); test: BLI Octet sandwich binning; competitor (antibody #1 on sensor) J-16
human LILRB2 (human) [3] = target: human LILRB2 (human) (UniProt Q8N423); test: BLI Octet sandwich binning; competitor (antibody #1 on sensor) J-11
human LILRB2 (human) [4] = target: human LILRB2 (human) (UniProt Q8N423); test: BLI Octet sandwich binning; competitor (antibody #1 on sensor) J-19
human LILRB2 (human) [5] = target: human LILRB2 (human) (UniProt Q8N423); test: BLI Octet sandwich binning; competitor (antibody #1 on sensor) J-17
human LILRB2 (human) [6] = target: human LILRB2 (human) (UniProt Q8N423); test: BLI Octet sandwich binning; competitor (antibody #1 on sensor) J-03
human LILRB2 (human) [7] = target: human LILRB2 (human) (UniProt Q8N423); test: BLI Octet sandwich binning; competitor (antibody #1 on sensor) J-04
human LILRA1 (human) = human LILRA1 (human) (UniProt O75019); test: flow cytometry, LILRA1 CHOs
human LILRA5 (human) = human LILRA5 (human) (UniProt A6NI73); test: flow cytometry, LILRA5 CHOs
human LILRB4 (human) = human LILRB4 (human) (UniProt Q8NHJ6); test: flow cytometry, LILRB4 CHOs
human LILRB2 (human) [8] = target: human LILRB2 (human) (UniProt Q8N423); test: SPR, SierraSensor MASS-2; antibody captured on anti-human Fc chip, LILRB2 65 to 0.089 nM, triplicates
human LILRB2 (human) [9] = target: human LILRB2 (human) (UniProt Q8N423); test: SPR, SierraSensor MASS-2; antibody captured on anti-human Fc chip, LILRB2 65 to 0.089 nM, duplicates; the reference itself
human LILRB2 (human) [10] = target: human LILRB2 (human) (UniProt Q8N423); test: SPR, SierraSensor MASS-2; antibody captured on anti-human Fc chip, LILRB2 65 to 0.089 nM, duplicates
human LILRB2 (human) [11] = target: human LILRB2 (human) (UniProt Q8N423); test: BLI ForteBio Octet Red96; antibody on anti-human capture sensor, LILRB2 at 50 nM and 5 nM

Sequence of human LILRA4 (human) (P59901 other isoform, or with tags, fused parts or gaps limits assumed): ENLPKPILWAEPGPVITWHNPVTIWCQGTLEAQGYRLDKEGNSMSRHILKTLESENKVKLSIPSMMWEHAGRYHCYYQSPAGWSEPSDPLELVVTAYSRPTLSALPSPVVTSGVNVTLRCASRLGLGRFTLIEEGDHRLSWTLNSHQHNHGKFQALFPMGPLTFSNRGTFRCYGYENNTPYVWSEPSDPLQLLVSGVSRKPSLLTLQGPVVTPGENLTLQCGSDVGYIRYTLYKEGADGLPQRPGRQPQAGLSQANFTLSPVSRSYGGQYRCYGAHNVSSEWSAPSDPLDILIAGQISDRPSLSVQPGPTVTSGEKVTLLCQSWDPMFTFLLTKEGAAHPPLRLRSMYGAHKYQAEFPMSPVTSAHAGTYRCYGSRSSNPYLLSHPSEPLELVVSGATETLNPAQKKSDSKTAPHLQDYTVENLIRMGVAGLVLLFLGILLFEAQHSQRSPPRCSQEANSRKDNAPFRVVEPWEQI
Sequence of human LILRA5 (human) (A6NI73 42-299 limits assumed): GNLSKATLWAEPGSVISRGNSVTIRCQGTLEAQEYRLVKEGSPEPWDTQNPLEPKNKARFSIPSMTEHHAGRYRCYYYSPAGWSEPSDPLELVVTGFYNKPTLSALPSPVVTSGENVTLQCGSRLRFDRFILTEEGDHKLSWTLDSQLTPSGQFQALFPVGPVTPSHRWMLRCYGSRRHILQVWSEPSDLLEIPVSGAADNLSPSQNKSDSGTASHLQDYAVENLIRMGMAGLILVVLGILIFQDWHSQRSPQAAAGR
Sequence of human LILRA1 (human) (O75019 17-489 limits assumed): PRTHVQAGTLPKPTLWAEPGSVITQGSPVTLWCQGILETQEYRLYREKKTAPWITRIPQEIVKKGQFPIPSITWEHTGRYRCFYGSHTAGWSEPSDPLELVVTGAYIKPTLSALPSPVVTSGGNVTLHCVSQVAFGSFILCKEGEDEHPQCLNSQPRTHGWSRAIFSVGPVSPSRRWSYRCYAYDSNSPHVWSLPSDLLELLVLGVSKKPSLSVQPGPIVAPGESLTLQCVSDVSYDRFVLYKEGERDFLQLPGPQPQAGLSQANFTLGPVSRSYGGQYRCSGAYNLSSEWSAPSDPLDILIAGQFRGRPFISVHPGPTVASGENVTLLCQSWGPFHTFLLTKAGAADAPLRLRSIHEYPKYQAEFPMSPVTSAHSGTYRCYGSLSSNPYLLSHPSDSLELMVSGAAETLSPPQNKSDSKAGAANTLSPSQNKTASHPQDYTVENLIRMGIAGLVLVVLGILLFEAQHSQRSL

response of antibody #2 (human LILRB2 (human) [1]): 0.1
response of antibody #2 (human LILRB2 (human) [2]): 0.3
response of antibody #2 (human LILRB2 (human) [3]): -0.24
response of antibody #2 (human LILRB2 (human) [4]): 0.28
response of antibody #2 (human LILRB2 (human) [5]): -0.27
response of antibody #2 (human LILRB2 (human) [6]): 0.01
response of antibody #2 (human LILRB2 (human) [7]): 0.51
B3: J-11 (antibody, human IgG4 S228P, kappa, V domains shown)
VH: QVQLQQSGAELMKPGASVKLSCKATGYILTGYWIEWVKQRPGHGLEWIGEILPGSGSTNYNENFKGKATFTADTSSNTAYMQLSSLTTEDSAIYYCARAVLGYFDYWGQGTTLTVSS
VL: DIVMTQSHKFMSTSVGDRVSITCKASQDVSTAVAWYQQKPGQSPKLLIYWASTRHTGVPDRFTGSGSGTDYTLTISSVQAEDLALYYCHQHYSTYTFGGGTKLEIKR

response of antibody #2 (human LILRB2 (human) [1]): 0.04
response of antibody #2 (human LILRB2 (human) [2]): 0.09
response of antibody #2 (human LILRB2 (human) [3]): -0.39
response of antibody #2 (human LILRB2 (human) [4]): -0.21
response of antibody #2 (human LILRB2 (human) [5]): -0.11
binding (fold over iso) (fold over iso) (human LILRA1 (human)): 7.31
response of antibody #2 (human LILRB2 (human) [6]): 0.05
response of antibody #2 (human LILRB2 (human) [7]): 0.42
B4: J-17 (antibody, human IgG4 S228P, kappa, V domains shown)
VH: QIQLVQSGPELKKPGETVKISCKASGYTFTTYGLSWVKQTPGKGLKWMGWINTYSGVPTYTDDFKGRFAFSLETSASTAYLQINNLKNEDTATYFCARPYDFDQVGFAYWGQGTLVTVSA
VL: SIVMTQTPKFLLVSAGDRVSITCKASQTVSSDVAWYQQKAGQSPKLLIYYASNRYTGVPDRFTGSGYGTDFTFTISTVQAEDLAVYFCQQDYSSPFTFGGGSKLEIKR

Fold difference over J-19.h1 (human LILRB2 (human) [8]): 1.91 fold
Kd (human LILRB2 (human) [8]): 1.31 nM
koff (human LILRB2 (human) [8]): 0.00115 s⁻¹
kon (human LILRB2 (human) [8]): 876000 M⁻¹ s⁻¹
fold higher affinity compared to J-19.h1 (human LILRB2 (human) [11]): 2 fold
B9: J-19.h5 (antibody, human IgG4 S228P, kappa, V domains shown)
VH: QITLKESGPTLVKPTQTLTLTCTFSGFSLNTYAMGVSWIRQPPGKALEWLASIWWNGNKYNNPSLKSRLTVTKDTSKNQVVLTMTNMDPVDTATYYCAHSRIIAFTDYVMDAWGQGTLVTVSS
VL: DIQMTQSPSSLSTSVGDRVTITCRASEDIYNDLAWYQQKPGKAPKLLIYNANSLHTGVASRFSGSGSGTDFTFTISSLQPEDVATYFCQQYYDYPLTFGQGTKLEIKR

The remaining lines, values behind:

B1: J-04 (antibody, human IgG4 S228P, kappa, V domains shown)
VH: QVQLQQSGAELVRPGASVTLSCKASGYTFADYEIHWVKQTPVHGLEWIGAIDPETGGTAYNQKFKGKAILTADKSSSTAYMELRSLTSEDSAVYYCTRYYDYDDAMDYWGQGTSVTVSS
VL: QIVLTQSPAIMSASPGEKVTMTCSASSSVSFMHWYQQKSGTSPKRWIYGTSKLASGVPARFSGSGSGTSYSLTISSMEAEDAATYYCQQWNGNPFTFGSGTKLETKR
binding (fold over iso) (fold over iso) (human LILRA4 (human)): 2.07
response of antibody #2 (human LILRB2 (human) [1]): -0.3
response of antibody #2 (human LILRB2 (human) [2]): -0.31
response of antibody #2 (human LILRB2 (human) [3]): 0.54
response of antibody #2 (human LILRB2 (human) [4]): 0.54
response of antibody #2 (human LILRB2 (human) [5]): 0.46
response of antibody #2 (human LILRB2 (human) [6]): -0.07
response of antibody #2 (human LILRB2 (human) [7]): -0.1

B2: J-19 (antibody, human IgG4 S228P, kappa, V domains shown)
VH: QVTLKESGPGILQPSHTLSLTCSFSGFSLNTYAMGVSWIRQPSGKGLEWLASIWWNGNKYNNPSLKSRLTVSKDTSNNQAFLKVTSVDTADTATYYCAHSRIIRFTDYVMDAWGQGASVTVSS
VL: DIQMTQSPASLSTFLGEPVTIECRASEDIYNDLAWYQQKPGKSPQLLIYNANSLHTGVPSRFSGSGSGTQYSLKINSLQSEDVASYFCQQYYDYPLTFGSGTKLEIKR
response of antibody #2 (human LILRB2 (human) [1]): 0.27
response of antibody #2 (human LILRB2 (human) [2]): 0.47
response of antibody #2 (human LILRB2 (human) [3]): 0.71
response of antibody #2 (human LILRB2 (human) [4]): -0.21
response of antibody #2 (human LILRB2 (human) [5]): -0.1
response of antibody #2 (human LILRB2 (human) [6]): 0.15
response of antibody #2 (human LILRB2 (human) [7]): 0.67

B5: J-19.h4 (antibody, human IgG4 S228P, kappa, V domains shown)
VH: B9 VH with I2V, T10A, Q16H, V71I, T72S, V90E, Y95F, A104R, Q115R, L118T
VL: DIVMTQSPSSLSASVGDTVTITCRASEDIYNDLAWYQQKPGKAPQLLLYNANSLHTGVPSRFSGSGSGTDYTLTISTLQPEDFATYYCQQYYDYPLTFGPGTKVHIKR
binding (fold over iso) (fold over iso) (human LILRA5 (human)): 2.14
binding (fold over iso) (fold over iso) (human LILRB4 (human)): 2.02

B6: J-19.h6 (antibody, human IgG4 S228P, kappa, V domains shown)
VH: B9 VH with A104D
VL: B9 VL
Fold difference over J-19.h1 (human LILRB2 (human) [8]): 3.47 fold
Kd (human LILRB2 (human) [8]): 0.718 nM
koff (human LILRB2 (human) [8]): 0.000592 s⁻¹
kon (human LILRB2 (human) [8]): 825000 M⁻¹ s⁻¹

B7: J-19.h1 (antibody, human IgG4 S228P, kappa, V domains shown)
VH: B9 VH with A104R
VL: B9 VL
Fold difference over J-19.h1 (human LILRB2 (human) [9]): 1 fold
Kd (human LILRB2 (human) [10]): 2.49 nM
koff (human LILRB2 (human) [10]): 0.00176 s⁻¹
kon (human LILRB2 (human) [10]): 705000 M⁻¹ s⁻¹

B8: J-19.h7 (antibody, human IgG4 S228P, kappa, V domains shown)
VH: B9 VH with A104E
VL: B9 VL
Fold difference over J-19.h1 (human LILRB2 (human) [10]): 2.73 fold
Kd (human LILRB2 (human) [10]): 0.912 nM
koff (human LILRB2 (human) [10]): 0.000788 s⁻¹
kon (human LILRB2 (human) [10]): 865000 M⁻¹ s⁻¹
